Experimental data from doi:10.1101/2022.02.14.480324.

Experiments:
[1] = molecular target: T1, His-OsIRO3 (Oryza sativa (rice), UniProt Q10KL8 1-252); experiment: EMSA
T1 sequence: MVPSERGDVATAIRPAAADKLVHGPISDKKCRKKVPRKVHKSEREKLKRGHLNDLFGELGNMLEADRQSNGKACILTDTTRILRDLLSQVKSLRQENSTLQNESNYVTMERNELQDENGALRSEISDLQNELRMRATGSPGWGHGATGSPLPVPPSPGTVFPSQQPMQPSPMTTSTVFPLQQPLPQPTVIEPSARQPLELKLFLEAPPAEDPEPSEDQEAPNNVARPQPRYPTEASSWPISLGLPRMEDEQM

[2] = molecular target: T1, His-OsIRO3; experiment: competition
[3] = molecular target: T1, His-OsIRO3; experiment: competition; remark: listed apart in the source

B1: pOsFIT probe (dsDNA)
DNA 1: TCAAGTAGTATTAGTCAATTGGTCATCACATTTCG
DNA 2: CGAAATGTGATGACCAATTGACTAATACTACTTGA
binding result [1]: no binding

B2: pOsIRO2 probe (dsDNA)
DNA 1: CCTCCCTAGCTTGGCAGAATAGTTAATGTTAATCACCTGATTAAA
DNA 2: TTTAATCAGGTGATTAACATTAACTATTCTGCCAAGCTAGGGAGG
binding result [1]: binds

B3: mpOsIRO2 (Cold-Probe-m) (dsDNA)
DNA 1: CCTCCCTAGCTTGGCAGAATAGTTAATGTTAATGTCCTGATTAAA
DNA 2: TTTAATCAGGACATTAACATTAACTATTCTGCCAAGCTAGGGAGG
binding result [2]: no binding

B4: pOsIRO2 unlabeled (Cold-Probe) (dsDNA)
DNA 1: CCTCCCTAGCTTGGCAGAATAGTTAATGTTAATCACCTGATTAAA
DNA 2: TTTAATCAGGTGATTAACATTAACTATTCTGCCAAGCTAGGGAGG
binding result [3]: binds
